{
  "source": "paper PMC2817712",
  "about": "“Using Structural Information to Change the Phosphotransfer Specificity of a Two-Component Chemotaxis Signalling Complex” (PLoS Biology, 2010)",
  "target": "T1, CheA3P1, the isolated P1 (Hpt, histidine-containing phosphotransfer) domain of CheA3 (residues 1-135), … (R. sphaeroides)",
  "T1 construct": "Analyte in SPR and partner in the unphosphorylated crystal structure; also called Hpt domain of CheA3",
  "test": "SPR; Biacore T100, 25°C; response regulator biotinylated in a C-terminal tag and held on streptavidin (200-1,500 RU); CheA3P1 injected at 120 nM to 2 mM; standard buffer (30 mM Hepes pH 7.5, 150 mM NaCl, 5 mM sodium acetate, 2 mM manganese chloride, 2 mM TCEP) with 0.05% Tween 20; equilibrium binding, 1:1 Langmuir model",
  "conditions": "both partners purified",
  "data": [
    {"binder": "CheY6(M13S) with an engineered C-terminal biotinylation tag, for SPR surfaces (natural protein, biotin within the engineered C-terminal tag (enzymatic)) PYNVMIVDDAASMRLYIASFIKTLPDFKVVAQAANGQEALDKLAAQPNVDLILLDIEMPVMDGMEFLRHAKLKTRAKICMLSSVAVSGSPHAARARELGADGVVAKPSGTVSHDLEEKTGGELARTMRTLMAA", "values": [
      {"measurement": "Kd", "value": "> 1000", "unit": "µM"}
    ]},
    {"binder": "CheY6(M13S,L16S,Y17M) with an engineered C-terminal biotinylation tag, for SPR surfaces (natural protein, biotin within the engineered C-terminal tag (enzymatic)) PYNVMIVDDAASMRSMIASFIKTLPDFKVVAQAANGQEALDKLAAQPNVDLILLDIEMPVMDGMEFLRHAKLKTRAKICMLSSVAVSGSPHAARARELGADGVVAKPSGTVSHDLEEKTGGELARTMRTLMAA", "values": [
      {"measurement": "Kd", "value": "> 1000", "unit": "µM"}
    ]}
  ]
}
